What was measured:
[1] = molecular target: PERIOD (PER) protein, Drosophila, expressed in S2 cells from hs-per, P07663
[2] = molecular target: phosvitin (Sigma #P-1253)
[3] = molecular target: mouse PERIOD2 (mPER2), in vitro translated, 35S-methionine-labeled, O54943
[4] = molecular target: mouse PERIOD1 (mPER1), in vitro translated, 35S-methionine-labeled, O35973
[5] = molecular target: dephosphorylated α-casein (Sigma #C-8032)

mouse PERIOD1 (mPER1), in vitro translated, 35S-methionine-labeled, O35973, sequence (O35973 whole entry, looked up): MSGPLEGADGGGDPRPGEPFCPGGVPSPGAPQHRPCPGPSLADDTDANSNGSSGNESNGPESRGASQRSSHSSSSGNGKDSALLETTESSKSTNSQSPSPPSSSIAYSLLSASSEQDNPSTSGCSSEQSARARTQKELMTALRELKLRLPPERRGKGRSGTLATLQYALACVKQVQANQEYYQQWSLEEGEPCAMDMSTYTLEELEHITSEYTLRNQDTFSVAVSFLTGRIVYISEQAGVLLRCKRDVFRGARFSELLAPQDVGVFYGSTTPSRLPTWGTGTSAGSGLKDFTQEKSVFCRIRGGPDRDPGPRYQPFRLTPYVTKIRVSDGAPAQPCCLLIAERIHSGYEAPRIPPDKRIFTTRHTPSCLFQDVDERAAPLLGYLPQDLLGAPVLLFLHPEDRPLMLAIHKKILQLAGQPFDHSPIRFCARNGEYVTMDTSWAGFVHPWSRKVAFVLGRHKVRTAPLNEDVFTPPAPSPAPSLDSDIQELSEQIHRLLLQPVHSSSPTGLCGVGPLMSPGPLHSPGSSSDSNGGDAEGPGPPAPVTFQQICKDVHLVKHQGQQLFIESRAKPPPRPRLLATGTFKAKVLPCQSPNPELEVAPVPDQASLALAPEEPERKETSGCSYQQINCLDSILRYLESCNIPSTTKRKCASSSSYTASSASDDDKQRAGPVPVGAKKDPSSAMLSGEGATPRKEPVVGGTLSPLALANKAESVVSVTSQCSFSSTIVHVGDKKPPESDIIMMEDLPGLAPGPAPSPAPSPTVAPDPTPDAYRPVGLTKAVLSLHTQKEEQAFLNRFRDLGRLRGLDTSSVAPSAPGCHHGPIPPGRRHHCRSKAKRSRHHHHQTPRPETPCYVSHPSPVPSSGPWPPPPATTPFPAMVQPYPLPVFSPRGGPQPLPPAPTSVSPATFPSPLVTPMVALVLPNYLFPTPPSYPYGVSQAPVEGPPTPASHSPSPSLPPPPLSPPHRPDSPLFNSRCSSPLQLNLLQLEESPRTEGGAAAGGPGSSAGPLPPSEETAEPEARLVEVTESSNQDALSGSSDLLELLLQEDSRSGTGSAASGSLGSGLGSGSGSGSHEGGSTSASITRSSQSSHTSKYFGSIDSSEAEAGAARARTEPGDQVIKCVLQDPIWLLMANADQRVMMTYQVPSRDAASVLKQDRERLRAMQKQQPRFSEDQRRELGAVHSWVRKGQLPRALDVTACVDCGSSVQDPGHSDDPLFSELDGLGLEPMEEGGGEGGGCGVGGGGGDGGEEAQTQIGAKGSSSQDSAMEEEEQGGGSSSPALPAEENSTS
mouse PERIOD2 (mPER2), in vitro translated, 35S-methionine-labeled, O54943, sequence (O54943 whole entry, looked up): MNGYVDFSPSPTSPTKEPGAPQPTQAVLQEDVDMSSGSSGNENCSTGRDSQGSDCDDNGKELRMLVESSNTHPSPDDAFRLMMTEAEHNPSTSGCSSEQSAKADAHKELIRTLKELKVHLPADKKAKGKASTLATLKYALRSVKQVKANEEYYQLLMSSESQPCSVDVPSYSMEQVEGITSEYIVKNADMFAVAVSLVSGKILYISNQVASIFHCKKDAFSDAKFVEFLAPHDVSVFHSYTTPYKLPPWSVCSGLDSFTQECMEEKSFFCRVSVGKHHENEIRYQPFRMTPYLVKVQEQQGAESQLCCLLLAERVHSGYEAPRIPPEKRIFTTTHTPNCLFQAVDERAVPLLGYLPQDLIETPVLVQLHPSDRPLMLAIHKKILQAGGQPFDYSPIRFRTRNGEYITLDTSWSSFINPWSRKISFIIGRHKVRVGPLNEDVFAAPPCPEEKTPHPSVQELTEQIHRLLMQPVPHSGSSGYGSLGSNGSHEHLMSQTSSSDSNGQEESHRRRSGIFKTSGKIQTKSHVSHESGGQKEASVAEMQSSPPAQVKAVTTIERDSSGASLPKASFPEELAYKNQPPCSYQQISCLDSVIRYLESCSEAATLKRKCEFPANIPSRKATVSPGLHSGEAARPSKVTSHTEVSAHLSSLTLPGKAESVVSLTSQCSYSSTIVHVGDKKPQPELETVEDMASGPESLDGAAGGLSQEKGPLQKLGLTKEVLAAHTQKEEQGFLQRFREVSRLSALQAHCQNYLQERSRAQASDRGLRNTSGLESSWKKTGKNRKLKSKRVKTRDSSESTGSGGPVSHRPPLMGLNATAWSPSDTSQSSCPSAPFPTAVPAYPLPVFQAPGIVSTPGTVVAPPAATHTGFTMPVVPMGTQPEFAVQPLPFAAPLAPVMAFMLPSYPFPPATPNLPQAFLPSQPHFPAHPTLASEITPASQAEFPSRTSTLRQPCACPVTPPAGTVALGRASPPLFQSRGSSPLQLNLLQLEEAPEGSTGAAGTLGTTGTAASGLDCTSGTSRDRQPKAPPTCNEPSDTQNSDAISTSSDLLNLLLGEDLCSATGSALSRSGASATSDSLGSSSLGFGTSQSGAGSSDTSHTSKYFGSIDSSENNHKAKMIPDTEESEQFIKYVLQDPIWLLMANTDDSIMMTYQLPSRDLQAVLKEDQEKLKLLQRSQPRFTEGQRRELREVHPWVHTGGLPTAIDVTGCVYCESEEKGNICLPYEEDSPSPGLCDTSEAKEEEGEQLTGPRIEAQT

Protein	phosphorylation of PER in vitro [1]	Km [2]	Vmax [2]	fold reduction in Vmax against wild-type [2]	affinity kinase assay, phosphorylation of bound substrate [3]	affinity kinase assay, phosphorylation of bound substrate [4]	32P signal intensity of phosphorylated substrate, wild-type relative to tau enzyme [2]	32P signal intensity of phosphorylated substrate, wild-type relative to tau enzyme [5]
DOUBLETIME protein (DBT), Drosophila, in vitro translated from dbt cDNA P12, 35S-labeled (protein) MELRVGNKYRLGRKIGSGSFGDIYLGTTINTGEEVAIKLECIRTKHPQLHIESKFYKTMQGGIGIPRIIWCGSEGDYNVMVMELLGPSLEDLFNFCSRRFSLKTVLLLADQMISRIDYIHSRDFIHRDIKPDNFLMGLGKKGNLVYIIDFGLAKKFRDARSLKHIPYRENKNLTGTARYASINTHLGIEQSRRDDLESLGYVLMYFNLGALPWQGLKAANKRQKYERISEKKLSTSIVVLCKGFPSEFVNYLNFCRQMHFDQRPDYCHLRKLFRNLFHRLGFTYDYVFDWNLLKFGGPRNPQAIQQAQDGADGQAGHDAVAAAAAVAAAAAASSHQQQQHKVNAALGGGGGSRAQQQLQGGQTLAMLGGNGGGNGSQLIGGNGLNMDDSMAATNSSRPPYDTPERRPSIRMRQGGGGGGGGVGVGGMQSGGGGGGVGNAK	the formation of a PER/DBT complex leads to DBT-dependent phosphorylation of PER in vitro	–	–	–	–	–	–	–
recombinant tau mutant hamster CK1ε (Arg178Cys) with N-terminal S•Tag and His-Tag fusions, captured on S-protein agarose (protein) MELRVGNKYRLGRKIGSGSFGDIYLGANIASGEEVAIKLECVKTKHPQLHIESKFYKMMQGGVGIPSIKWCGAEGDYNVMVMELLGPSLEDLFNFCSRKFSLKTVLLLADQMISRIEYIHSKNFIHRDVKPDNFLMGLGKKGNLVYIIDFGLAKKYRDARTHQHIPYRENKNLTGTACYASINTHLGIEQSRRDDLESLGYVLMYFNLGSLPWQGLKAATKRQKYERISEKKMSTPIEVLCKGYPSEFSTYLNFCRSLRFDDKPDYSYLRQLFRNLFHRQGFSYDYVFDWNMLKFGAARNPEDVDRERREHEREERMGQLRGSATRALPPGPPTGATANRLRSAAEPVASTPASRIQQAGNTSPRAISRADRERKVSMRLHRGAPANVSSSDLTGRQEVSRISASQTSVPFDHLGK	–	a Km of 29.8 µM	a Vmax of 52.5 µmoles/µg/5 minutes	the tau mutation causes an eight-fold reduction in the Vmax of CK1ε	there is a clear attenuation in phosphorylation of mPER1 and mPER2 by the tau mutant enzyme as compared to wild type CK1ε	there is a clear attenuation in phosphorylation of mPER1 and mPER2 by the tau mutant enzyme as compared to wild type CK1ε	–	–
recombinant wild-type hamster CK1ε with N-terminal S•Tag and His-Tag fusions, captured on S-protein agarose (protein) MELRVGNKYRLGRKIGSGSFGDIYLGANIASGEEVAIKLECVKTKHPQLHIESKFYKMMQGGVGIPSIKWCGAEGDYNVMVMELLGPSLEDLFNFCSRKFSLKTVLLLADQMISRIEYIHSKNFIHRDVKPDNFLMGLGKKGNLVYIIDFGLAKKYRDARTHQHIPYRENKNLTGTARYASINTHLGIEQSRRDDLESLGYVLMYFNLGSLPWQGLKAATKRQKYERISEKKMSTPIEVLCKGYPSEFSTYLNFCRSLRFDDKPDYSYLRQLFRNLFHRQGFSYDYVFDWNMLKFGAARNPEDVDRERREHEREERMGQLRGSATRALPPGPPTGATANRLRSAAEPVASTPASRIQQAGNTSPRAISRADRERKVSMRLHRGAPANVSSSDLTGRQEVSRISASQTSVPFDHLGK	–	the Km is 55.6 µM	the Vmax is 400 µmoles/µg/5 minutes	–	this affinity kinase assay demonstrates that CK1ε phosphorylates mammalian PERIOD proteins	this affinity kinase assay demonstrates that CK1ε phosphorylates mammalian PERIOD proteins	The wild-type CK1ε kinase produces an 8-fold and 4-fold greater signal intensity, for phosvitin and α-casein respectively, relative to that produced by the tau enzyme.	The wild-type CK1ε kinase produces an 8-fold and 4-fold greater signal intensity, for phosvitin and α-casein respectively, relative to that produced by the tau enzyme.
